The results in this text go back to US20260217846A1 (published 2026).

The target of the assay is recombinant human 4-1BB (human, UniProt Q07011 24-186). Put plainly: ELISA. (ELISA stands for enzyme-linked immunosorbent assay.)
Chain of recombinant human 4-1BB (Q07011 24-186): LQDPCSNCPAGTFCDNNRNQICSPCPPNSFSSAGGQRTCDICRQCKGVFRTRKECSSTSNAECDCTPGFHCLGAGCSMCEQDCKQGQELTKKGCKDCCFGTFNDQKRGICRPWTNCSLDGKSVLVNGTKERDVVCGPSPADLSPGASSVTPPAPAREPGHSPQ

B1: Clone 49A 4-1BB antibody (IgG1) (antibody, V domains shown)
VH: VKLQQSGPELVKPGASVKISCKASGYTFTDYYMNWVKESHGKSLEWIGDINPNNGGSTYYNQKFKGKATLTVEKSSSTAFMELRSLTSEDSAVYYCARSLYGSTYYFDYWGQGTPLTVSS
VL: DIVLTQSPASLAVSLGQRATISCKASQSVDYDGDSYMNWYQQKPGQPPKLLIYAASNLESGIPARFSGSGSGTDFTLNIHPVEEEDAGTYYCQQSNDDPWTFGGGTKLEIK
Consider B1, for which the EC50 (commonly the midpoint of the concentration-response curve) worked out at 1.32 ng/mL.

B2: Clone 138 4-1BB antibody (IgG2b) (antibody, V domains shown)
VH: VQLQESGGGLVKPGGSLKLSCAASGFTFSDYGMHWVRQAPEKGLEWVAYISSGSNSIYYADTVTGRFTISRDNAKNTLFLQMTSLRSEDTAMYYCASNNGYFYFDYWGQGTTLTVSS
VL: IVITQSPAILSASPGEKVTMTCRASSSVSYMHWYQQKPGSSPKPWIYATSNLASGVPARFSGSGSGTSYSLTVSRVEAEDAATYYCQQWSSDPFTFGSGTKLEIK
On to B2, for which the EC50 worked out at 4.71 ng/mL.

B3: Clone 54 4-1BB antibody (IgG2a) (antibody, V domains shown)
VH: EFQLQQSGPELVKPGASVKISCKASGYSFTDYNMNWVKQSNGKSLEWIGVINPNYGTTSYNQKFKGKATFTVDQSSSTAYMQLNSLTSEDSAVYYCARSPVEDYFDYWGQGTTLTVSS
VL: ENVLTQSPAIMSASPGEKVTMTCRARSSVSSSYLHWYQQKSGASPKLWIYSTSNLASGVPARFSGSGSGTSYSLTISSVEAEDAATYYCQQYSGYPLITFGAGTKLELKR
B3: the concentration giving a half-maximal response (EC50) is 16 ng/mL.
